For assay [1], the target named is T1, Na-Cl co-transporter (NCC) (Mus musculus, UniProt P59158).
T1 chain: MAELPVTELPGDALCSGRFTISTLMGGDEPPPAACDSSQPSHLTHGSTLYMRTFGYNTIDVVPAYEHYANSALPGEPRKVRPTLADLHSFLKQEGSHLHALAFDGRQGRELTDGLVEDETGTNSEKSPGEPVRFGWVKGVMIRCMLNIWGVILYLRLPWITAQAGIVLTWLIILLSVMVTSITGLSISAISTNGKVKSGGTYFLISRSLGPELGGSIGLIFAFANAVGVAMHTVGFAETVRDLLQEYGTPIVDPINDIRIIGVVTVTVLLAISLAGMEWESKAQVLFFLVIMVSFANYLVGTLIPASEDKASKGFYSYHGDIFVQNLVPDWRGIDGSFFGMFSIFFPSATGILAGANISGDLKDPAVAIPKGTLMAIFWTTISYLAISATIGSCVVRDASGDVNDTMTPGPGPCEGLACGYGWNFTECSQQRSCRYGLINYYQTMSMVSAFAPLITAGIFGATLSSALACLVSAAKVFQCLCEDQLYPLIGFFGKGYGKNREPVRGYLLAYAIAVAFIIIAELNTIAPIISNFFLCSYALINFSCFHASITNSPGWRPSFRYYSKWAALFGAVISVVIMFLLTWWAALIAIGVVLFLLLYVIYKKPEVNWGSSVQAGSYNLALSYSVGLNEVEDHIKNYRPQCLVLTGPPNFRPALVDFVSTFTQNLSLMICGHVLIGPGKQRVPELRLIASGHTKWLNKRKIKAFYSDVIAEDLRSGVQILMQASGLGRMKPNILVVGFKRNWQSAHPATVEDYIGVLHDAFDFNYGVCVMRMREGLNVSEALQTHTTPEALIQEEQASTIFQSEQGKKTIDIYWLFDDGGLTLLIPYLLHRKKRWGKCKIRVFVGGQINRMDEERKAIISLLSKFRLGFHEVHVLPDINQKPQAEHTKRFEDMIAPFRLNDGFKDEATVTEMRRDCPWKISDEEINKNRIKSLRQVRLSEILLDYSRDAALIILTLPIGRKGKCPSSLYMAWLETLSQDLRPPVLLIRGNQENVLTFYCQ
The assay is described as follows: FITC-IL18 binding to NCC-transfected COS-7 cell membranes, Scatchard analysis.

Assay [2] deals with T1, Na-Cl co-transporter (NCC).

Where two headings read alike, the source gives them in different places.

B1: IL-18 (protein)
chain: NFGRLHCTTAVIRNINDQVLFVDKRQPVFEDMTDIDQSASEPQTRLIIYMYKDSEVRGLAVTLSVKDSKMSTLSCKNKIISFEEMDPPENIDDIQSDLIFFQKRVPGHNKMEFESSLYEGHFLACQKEDDAFKLILKKKDENGDKSVMFTLTNLHQS
modifications: FITC-conjugated IL18
For B1, the Kd (usually the concentration at which binding is half-saturated) in assay [1] came to 17.3 nM; in assay [2] it was 21.4 nM.

(Values after article PMC4554539 (2016).)
